# Test results published in the DeepSol protein solubility set.
# Experiment: soluble on expression in E. coli; label from the status in PepcDB or PDB records
row,Sequence,soluble on expression in E. coli
1,MAHHHHHHMKALVFLEVEESATGSNTARSTATQMHALFAGLVEMSMHVYLEKDASLAAASGAAEARVLLLSTVVKDLLSVREQSRSSPAQYVRYVQRMLIARTPVVPYITTQLLQDCQSQTALLTTSHGPTVLGAKRGDPAECFSVVHPRRYR,not soluble
2,MGSDKIHHHHHHLRMSRIQARLLQAIVRPALKTNLLKHAAWRVVLKLRNEFAHAVPPVELETTFDENIRILTSLSDHIESQVFWQGFQEADEGVILLLKRFLPSDGSFIDVGANIGTFTLVAAHRAVRGQVHAFEPSAHHFARLAHNVELNDFKNVALNRKGLYDQPGEAVLFLPSQTGEMNNSGAASLYTSALEETRQVSEAVSLIRLDDYVREKSIGRVDIIKIDIEGAELKALEGARETIARFRPLVFMELDLDNLERAERSPEEVLQYWKSLNYEVSIILLTGETVPVTSPKEFGLHQNLQCRPF,not soluble
3,MSPENKICMEQSEDGDLDAGDELFEEVDGDGKGEIFANRELLNIDHVPDENRIVGRDEHITELANEIGPAVTGSPPNSVILYGKTGSGKSLVANHVMERARREAQRRDRRLATVTVDCAQSRGEADTVQTIADKINRSTSGVTVPTRGISTNEYYNRLWQILGTEYDAALITLDEVDRLSDDDILMILSRAREAGKVDVPIGIISISNKVNFREQMTERVKSSLGHNEMIFDPYDGEQLRQILENRKDAFQEDILMPGVIPKTAALAAQRHGDARKAIRLLRHAGDYAKTNNIGTVKESHLELAQEQAEVERLKELISGLPPHSKYVLYALANLTDGTTNSNDWFRTTVIYDVYEEVCKTEATDTLTTDTIRGLLNELAFLEITESNQEHGGMGKGTYKEHRLLWDPNVVFKMNPGSAQVDTDR,not soluble
4,MAGDPMKIMIFICGEGLGHTSRCLALGKELLAAGHEIEFGAYGYSRDLVEKTGYRIHEIPSEIKLVGKAGGFDLSGSIEATLKNARILGGPKVLKLIKDFKPDVVVSDSYYLGTLAAMLLNIPVYLIINQSNMEDFFKNRGVPIRLLGDLTKKFYREVFEKTDKIIIPDYPLPYTVCRKNLNFSPGLWEKLEHHHHHH,not soluble
5,MGSSHHHHHHSSGRENLYFQGHMCILMATRAHPDYELILISNRDEFLARKTHATCWHNNDFILSPYDLAKTSAEKQIFGTWSGINKEGKLATILNLKLDNEQNNTKSRSRGLLPFIFLSIHKADFEDWDNYKKFEGHYDGLKSTGDFNFFYGDVIKKQYKVIDSLGRTFDVLSSTCRKDLDSYMVVSNGKFYDSSSIPGQAWEKVKVARDSLENLVLENIESDEEKIISSCFQLASKSSLPSTISNPDVLQMVDPNVTMNTIYVPPLRRPPRDDLGASIPDGDYYGTRSQIVLLVSKDSTRVTFIERVLYSSDEDVRKYSVTSPKEEKRFKFKL,soluble
6,QLVLTQSSSASFSLGASAKLTCTLSSQHSTYTIEWYQQQPLKPPKYVMDLKQDGSHSTGDGIPDRFSGSSSGADRYLSISNIQPEDEAMYICGVGDTIKEQFVYVFGGGTKVTVLGEPKSTPTLTVFPPSSEELKENKATLVCLISNFSPSGVTVAWKANGTPITQGVDTSNPTKEGNKFMASSFLHLTSDQWRSHNSFTCQVTHEGDTVEKSLSPAECL,soluble
7,MSLSMLEKVSFSTTPDFELGFEHCPRQTDYLIAQPKERAKGLVVYIPGFGDDAGEYREKFCLKVAEKYDLAAMTVDYHCFYSRPEVHSATAYEAEDVALIEKLFLAHNLPFAGDTIEEGIEILNKHLASHNQKASITATLIPGKDEYQNAGVLQALDIINAVGHAIEKYSIPAENVILIGSSYGGYIANLATKFAPKTFRAVFDNSSWAQPHFTYIVGREYGYPELIHKTHSHIATKLFLRTAWTLKKGLPNTFDGKRFYVRTFSEDQLGQFSSYEPETYYYFIHAEKDKLALTEHKIQMATYMIQREMNVHMEVMEAADIDGQYIKTIEHGMNLSMLTFFDKAYAHINDHTISLENDFMNGSLVGYDSGDHRYEFDFSTFPVTGRVTQKAVAEGHHHHHH,soluble
8,MDSIYRDAGYDVLKVSAKTGEGIDELVDYLEGFICILAGPSGVGKSSILSRLTGEELRTQEVSEKTERGRHTTTGVRLIPFGKGSFVGDTPGFSKVEATMFVKPREVRNYFREFLRYQCKYPDCTHTNEPGCAVKEAVKNGEISCERYKSYLKIIKVYLEEIKELCREDLEHHHHHH,not soluble
9,SNAQVEVIVMMHGRSTATSMVETVQELLSIESGIALDMPLTVEVKAMYEKLKQTVVKLNPVKGVLILSDMGSLTSFGNILTEELGIRTKTVTMVSTPVVLEAMRKASLGRGLEDIYQSCEQLFENKYKAH,soluble
10,LFTPDKQRITESVAFKDLSSPELEQYIGDTQAEKLRADIELIDGVYQPFDKEEYLAGQLAPVFFGSALNNFGVQELLNCFVEIAPSPQPVAAVERKVDPHEEEFTGFVFKIHANMDPNHRSCIAFVKICSGRFERNTNYKHIRLGKQFRFSSPTAFMAQRKETVDEAYAGDIIGLPDTGNFQIGDTLTAGEELHFRGLPSFSPELFKYIENQDPMKAKQLAKGIDQLMGEGVAQLFTNQFNGRKIIGTVGQLQFEVIQYRLLHEYGAQCRWEPISLYKACWIDSDKPEALEAFKKRKAQYMAKDIAGRDVYLADSGYVLNMAQQDFPDIRFHFTSEF,not soluble
11,MGSDKIHHHHHHMFGYVLPLRGELKVKDYEKFKSYYCGLCLSIKKNYGNLPRSVLNYDMTFLAVLLDALEDKKCEFRLNRCIAHPYKKKYAIINNKALDYAAFFNICLVYYKLVDDVNDDKKISSKIKSLLLRGYFKKFPKPFYVYSDYIKSSLTELNKLEKKSNNLTLDEISHPFSDLTAFIISSYADNKPYKDILYNIGYNLGKWIYIMDAYDDLKEDIKLKKFNAINNTMNLDDKPYEDLIKDISPKISFVLSMCGSNCLHNLNLLPLKTNQDILFNILQYGLLDKMNNLNL,not soluble
12,AGNTSYFLRRKIFRKIMHITAPSHDQYGSSTLLVRLTNDVYLMEIMTFDFL,not soluble
13,AHHHHHHGSPPIIDPHILRSLHRSELRRRILHYLYEIYPSATYLSEIARVVSSDPSNVRGALVGLGNRYNSESSLVYLGLVEEIVNNGFKYYRLTEYGKKVVEMLKDYQTYYRKFM,not soluble
14,MLLPKFLLLTAFLEFASAICADSNDQEIKGFCFKFVTQQLTFTDARTWCHLKNPVGPSYLAYVPSQDTSTYLAFYARSAFGADAEVFWIGLSRNASSGSLSWDNGLPVAYTNFGTNVGKNYFTESISNTKWDTLGDGDLNFFVCSYAPIVNSTTMTSITGTTKRMTTTTIEKLNCKPGDHQIILFAYSNDLAPSVVTDALYYSSLSSQSVTYAVSRFDLRQPEDIQYFSDYSLFSSYVSSHLPDYTLGFEEATTGSNVFEVINKFYDNTQATCGSNLIILSKRYPNTADVSNIVLKVRKSQGMVNFLASHAPSGGTVSQGLYDLCSLTNGIYSIGRDSSFSNMIESMPIRYRYAIYADNPKVSGQGSQTLASMSVPADGTYYLSMMLQNHTPVNTTQSVLLHWYSPYSRYSSTASVHGLSFETNNNGANSEILDAAIYNVTLDFVYFTSETMQIRFYGTSTDHWLPYAD,not soluble
15,EPEQVIRKYTEELKVAPEEDCIICMEKLAVASGYSDMTDSKALGPMVVGRLTKCSHAFHLLCLLAMYCNGNKDGSLQCPSCKTIYGEKTGTQPWGKMEVFR,soluble
16,MVKEPGGKHVLCVGAAVLDTLFRVADMPKGEGKVLPYEVLQIAEGMASSAAYAVHRMGGRASLWGAVGDDETGTRILRDLSESGIDTSGMTVAPGARSALSTIIIDNRGERLIVPFYDHRLHEKKRACTPEDIALFDAVLVDVRWPELALDVLTVARALGKPAILDGDVAPVETLEGLAPAATHIVFSEPAATRLTGLETVKDMLPVLHARYPQTFIAVTAGPAGCWWTEADDPTVHFQTTMQVEAVDTLAAGDIFHGTFALAMAEGMQSRAAVRLSSVAAALKCTVFGGRIGAPTREETEEAMRQWLERESEPALRAS,soluble
17,MKLAELSKEEIQELSMVEVAYLVMKETKEPFNYQDLLKKVAELKGMSEEQMLDRIGYLYTDLNIDGRFVTLGDNRWGLRSWYPLEQVEEEITGPTKKKAKAKAEEEVDELDENIEVFDDEFEDLEDELDELAESEDSDEEDEEFDEGDDIDELDDEFEESDDDL,not soluble
18,MKFGGVLLIVKDINKSKKFYEDVMEQKITLDLGEHVSFENGFGLQSNYKAIIGYDLPIYQQSNNFQLYFEVNDIKQWESKINRIGNIEFLHYIKEYPWGQRTFRFYDFDKNIIEISESMESVIKRLLKQGLALEEISKRTMYPVEFITQFQQLLEHHHHHH,soluble
19,MKVILVNGSPHKDGCTFTALEEVAKALNEEGIDTEFFHLGTKPLNGCIACGHCRKHQRCVFPDSVNEFLDLAQEADGFIFGSPVHYAAAGGAITSFLDRVFYTDSGSGKQAFYLKPAAAVVSARRAGTTASLDQLNRYFTIKEMPIISSKYWNMVHGNTPEEVRKDEEGLQIMRTLGRNMAWFLKCKEAGIRAGIPFPSQEEGLRTNFIRLEHHHHHH,soluble
20,MTAASLDPTAFSLDAASLAARLDAVFDQALRERRLVGAVAIVARHGEILYRRAQGLADREAGRPMREDTLFRLASVTKPIVALAVLRLVARGELALDAPVTRWLPEFRPRLADGSEPLVTIHHLLTHTSGLGYWLLEGAGSVYDRLGISDGIDLRDFDLDENLRRLASAPLSFAPGSGWQYSLALDVLGAVVERATGQPLAAAVDALVAQPLGMRDCGFVSAEPERFAVPYHDGQPEPVRMRDGIEVPLPEGHGAAVRFAPSRVFEPGAYPSGGAGMYGSADDVLRALEAIRANPGFLPETLADAARRDQAGVGAETRGPGWGFGYLSAVLDDPAAAGTPQHAGTLQWGGVYGHSWFVDRALGLSVLLLTNTAYEGMSGPLTIALRDAVYAR,soluble
21,MGSDKIHHHHHHAAGSPEEDMEDRVRIDPVAGGYYPSISPSAQTRGATPDGETLKDRPIFLLEDGSTIRLVVYDDAKNLLEEYSKAYLVRNAGTSGSSLLYPCEVDDNGAVISSSSTPLYMKAGTYYFRILSPAKALNSKGFVNIGNGEYLLATDDRYTQTAMTAVTITKIDEGGTLNNVQTLYLPPIINQTARMQFTVRAGEGVHTLEMLAEGIEISGIQQPLDNTTSFDWVNGDVLPVKVGDQSASVRITQATRNADNSLVAHTGVLPTDARSHSISVLLNLKVNGNPTQYQMLLTGLYLTAGHSYNYTATVKISNGVTVLTWQNRSWTENVVMDK,not soluble
22,MSLSISEKPLSELLRPKDFEDFVGQDHIFGNKGILRRTLKTGNMFSSILYGPPGSGKTSVFSLLKRYFNGEVVYLSSTVHGVSEIKNVLKRGEQLRKYGKKLLLFLDEIHRLNKNQQMVLVSHVERGDIVLVATTTENPSFVIVPALLSRCRILYFKKLSDEDLMKILKKATEVLNIDLEESVEKAIVRHSEGDARKLLNTLEIVHQAFKNKRVTLEDLETLLGNVSGYTKESHYDFASAFIKSMRGSDPNAAVYYLVKMIEMGEDPRFIARRMIIFASEDVGLADPNALHIAVSTSIAVEHVGLPECLMNLVECAVYLSLAPKSNSVYLAMKEGHHHHHH,not soluble
23,MAVLKGLRPRVPKGLKSPPEPWGWPLLGHVLTLGKNPHLALSRMSQRYGDVLQIRIGSTPVLVLSRLDTIRQALVRQGDDFKGRPDLYTSTLITDGQSLTFSTDSGPVWAARRRLAQNALNTFSIASDPASSSSCYLEEHVSKEAKALISRLQELMAGPGHFDPYNQVVVSVANVIGAMCFGQHFPESSDEMLSLVKNTHEFVETASSGNPLDFFPILRYLPNPALQRFKAFNQRFLWFLQKTVQEHYQDFDKNSVRDITGALFKHSKKGPRASGNLIPQEKIVNLVNDIFGAGFDTVTTAISWSLMYLVTKPEIQRKIQKELDTVIGRERRPRLSDRPQLPYLEAFILETFRHSSFLPFTIPHSTTRDTTLNGFYIPKKCCVFVNQWQVNHDPELWEDPSEFRPERFLTADGTAINKPLSEKMMLFGMGKRRCIGEVLAKWEIFLFLAILLQQLEFSVPPGVKVDLTPIYGLTMKHARCEHVQARRFSINHHHH,soluble
